Results: article PMC10980815, “Cell surface patching via CXCR4-targeted nanothreads for cancer metastasis inhibition” (Nature Communications, 2024)
Ends that are not written are not given here. HPMA copolymer = HPMA copolymer made by RAFT copolymerization of HPMA with N-(3-aminopropyl)methacrylamide (APMA), bearing maleimide groups for grafting

Test: Pharmacokinetics at each cycle of a four-round treatment regimen
Type: in vivo, female mice
Set-up: PK curves: unit not given here

“P-CM2-Cy3: Cy3-labeled P-CM2 (C(HPMA copolymer)YGGEVSALEKEVSALEKKNSALEKEVSALEKEVSALEK; also: Cy3 label on conjugate, position not given here)” showed a PK curves (Round 1, Time 0.041667 Day, replicate 1) of 163.747, a PK curves (Round 1, Time 0.041667 Day, replicate 2) of 180.755 and a PK curves (Round 1, Time 0.041667 Day, replicate 3) of 215.82. It also gave a PK curves (Round 1, Time 0.041667 Day, replicate 4) of 227.965, a PK curves (Round 1, Time 0.041667 Day, replicate 5) of 272.14 and a PK curves (Round 1, Time 0.083333 Day, replicate 1) of 152.881. It also gave a PK curves (Round 1, Time 0.083333 Day, replicate 2) of 155.096, a PK curves (Round 1, Time 0.083333 Day, replicate 3) of 158.378 and a PK curves (Round 1, Time 0.083333 Day, replicate 4) of 173.813. The PK curves (Round 1, Time 0.083333 Day, replicate 5) was 181.609, the PK curves (Round 1, Time 0.166667 Day, replicate 1) was 117.124 and the PK curves (Round 1, Time 0.166667 Day, replicate 2) was 133.5. It also gave a PK curves (Round 1, Time 0.166667 Day, replicate 3) of 138.292, a PK curves (Round 1, Time 0.166667 Day, replicate 4) of 141.138 and a PK curves (Round 1, Time 0.166667 Day, replicate 5) of 149.467. The PK curves (Round 1, Time 0.25 Day, replicate 1) was 99.512, the PK curves (Round 1, Time 0.25 Day, replicate 2) was 115.311 and the PK curves (Round 1, Time 0.25 Day, replicate 3) was 115.69. The PK curves (Round 1, Time 0.25 Day, replicate 4) was 124.268, the PK curves (Round 1, Time 0.25 Day, replicate 5) was 126.538 and the PK curves (Round 1, Time 0.333333 Day, replicate 1) was 72.638. For the same substance, the PK curves (Round 1, Time 0.333333 Day, replicate 2) was 80.332, the PK curves (Round 1, Time 0.333333 Day, replicate 3) was 81.864 and the PK curves (Round 1, Time 0.333333 Day, replicate 4) was 87.045. For the same substance, the PK curves (Round 1, Time 0.333333 Day, replicate 5) was 96.736, the PK curves (Round 1, Time 0.5 Day, replicate 1) was 53.965 and the PK curves (Round 1, Time 0.5 Day, replicate 2) was 58.639. It also gave a PK curves (Round 1, Time 0.5 Day, replicate 3) of 59.336, a PK curves (Round 1, Time 0.5 Day, replicate 4) of 66.884 and a PK curves (Round 1, Time 0.5 Day, replicate 5) of 78.186. For the same substance, the PK curves (Round 1, Time 1 Day, replicate 1) was 21.997, the PK curves (Round 1, Time 1 Day, replicate 2) was 25.01 and the PK curves (Round 1, Time 1 Day, replicate 3) was 29.67. For the same substance, the PK curves (Round 1, Time 1 Day, replicate 4) was 31.811, the PK curves (Round 1, Time 1 Day, replicate 5) was 36.626 and the PK curves (Round 1, Time 2 Day, replicate 1) was 11.902. It also gave a PK curves (Round 1, Time 2 Day, replicate 2) of 17.163, a PK curves (Round 1, Time 2 Day, replicate 3) of 19.932 and a PK curves (Round 1, Time 2 Day, replicate 4) of 21.481. For the same substance, the PK curves (Round 1, Time 2 Day, replicate 5) was 24.221, the PK curves (Round 1, Time 3 Day, replicate 1) was 3.355 and the PK curves (Round 1, Time 3 Day, replicate 2) was 5.764. The PK curves (Round 1, Time 3 Day, replicate 3) was 7.718, the PK curves (Round 1, Time 3 Day, replicate 4) was 11.103 and the PK curves (Round 1, Time 3 Day, replicate 5) was 11.877. For the same substance, the AUC0-t (Round 1, same) was 2910.449 ± 479.173 ng·h/mL, the “AUC0-∞” value (Round 1, same) was 3143.497 ± 607.036 ng·h/mL and the MRT0-t (Round 1, same) was 17.874 ± 1.409 h. For the same substance, the “MRT0-∞” value (Round 1, same) was 23.669 ± 4.167 h, the T1/2z (Round 1 of four-round Nanothread-1→Nanothread-2 regimen, blood fluorescence, DAS 2.0, mean ± SD, n = 5) was 19.104 ± 3.483 h and the PK curves (Round 2, Time 0.041667 Day, replicate 1) was 166.289. The PK curves (Round 2, Time 0.041667 Day, replicate 2) was 169.535, the PK curves (Round 2, Time 0.041667 Day, replicate 3) was 192.765 and the PK curves (Round 2, Time 0.041667 Day, replicate 4) was 283.095. For the same substance, the PK curves (Round 2, Time 0.041667 Day, replicate 5) was 308.888, the PK curves (Round 2, Time 0.083333 Day, replicate 1) was 129.263 and the PK curves (Round 2, Time 0.083333 Day, replicate 2) was 143.311. The PK curves (Round 2, Time 0.083333 Day, replicate 3) was 159.105, the PK curves (Round 2, Time 0.083333 Day, replicate 4) was 167.258 and the PK curves (Round 2, Time 0.083333 Day, replicate 5) was 213.448. For the same substance, the PK curves (Round 2, Time 0.166667 Day, replicate 1) was 118.029, the PK curves (Round 2, Time 0.166667 Day, replicate 2) was 120.594 and the PK curves (Round 2, Time 0.166667 Day, replicate 3) was 139.935. For the same substance, the PK curves (Round 2, Time 0.166667 Day, replicate 4) was 140.364, the PK curves (Round 2, Time 0.166667 Day, replicate 5) was 140.694 and the PK curves (Round 2, Time 0.25 Day, replicate 1) was 88.6458. It also gave a PK curves (Round 2, Time 0.25 Day, replicate 2) of 101.112, a PK curves (Round 2, Time 0.25 Day, replicate 3) of 104.483 and a PK curves (Round 2, Time 0.25 Day, replicate 4) of 106.877. The PK curves (Round 2, Time 0.25 Day, replicate 5) was 110.672, the PK curves (Round 2, Time 0.333333 Day, replicate 1) was 69.5736 and the PK curves (Round 2, Time 0.333333 Day, replicate 2) was 78.4476. For the same substance, the PK curves (Round 2, Time 0.333333 Day, replicate 3) was 88.3019, the PK curves (Round 2, Time 0.333333 Day, replicate 4) was 89.2405 and the PK curves (Round 2, Time 0.333333 Day, replicate 5) was 90.1636. For the same substance, the PK curves (Round 2, Time 0.5 Day, replicate 1) was 43.1833, the PK curves (Round 2, Time 0.5 Day, replicate 2) was 45.6973 and the PK curves (Round 2, Time 0.5 Day, replicate 3) was 51.9942. The PK curves (Round 2, Time 0.5 Day, replicate 4) was 68.9589, the PK curves (Round 2, Time 0.5 Day, replicate 5) was 80.0862 and the PK curves (Round 2, Time 1 Day, replicate 1) was 16.0352. For the same substance, the PK curves (Round 2, Time 1 Day, replicate 2) was 27.0822, the PK curves (Round 2, Time 1 Day, replicate 3) was 31.0181 and the PK curves (Round 2, Time 1 Day, replicate 4) was 36.116. For the same substance, the PK curves (Round 2, Time 1 Day, replicate 5) was 40.972, the PK curves (Round 2, Time 2 Day, replicate 1) was 12.4543 and the PK curves (Round 2, Time 2 Day, replicate 2) was 13.9537. The PK curves (Round 2, Time 2 Day, replicate 3) was 16.9804, the PK curves (Round 2, Time 2 Day, replicate 4) was 22.3399 and the PK curves (Round 2, Time 2 Day, replicate 5) was 24.6061. It also gave a PK curves (Round 2, Time 3 Day, replicate 1) of 4.968, a PK curves (Round 2, Time 3 Day, replicate 2) of 5.058 and a PK curves (Round 2, Time 3 Day, replicate 3) of 5.667. It also gave a PK curves (Round 2, Time 3 Day, replicate 4) of 9.298, a PK curves (Round 2, Time 3 Day, replicate 5) of 13.6533 and an AUC0-t (Round 2, same) of 2845.842 ± 670.957 ng·h/mL. The “AUC0-∞” value (Round 2, same) was 3070.777 ± 804.281 ng·h/mL, the MRT0-t (Round 2, same) was 17.76 ± 1.068 h and the “MRT0-∞” value (Round 2, same) was 23.374 ± 3.332 h. The T1/2z (Round 2, same) was 18.965 ± 3.022 h.
